From patent US20220177587A1, “METHODS AND USES OF VARIANT CD80 FUSION PROTEINS AND RELATED CONSTRUCTS” (Alpine Immune Sciences, Inc., priority 2018, published 2022)
Substitutions are numbered along the chain they refer to. Names and notes keep the numbering of the source.

B1: H18Y/E35D/M38I/M47L/V68M/L85M (protein, UniProt P33681 35-288, looked up, variant H18Y E35D M38I M47L V68M L85M)
T-lymphocyte activation …: VIHVTKEVKEVATLSCGYNVSVEELAQTRIYWQKDKKIVLTMMSGDLNIWPEYKNRTIFDITNNLSIMILALRPSDEGTYECVVMKYEKDAFKREHLAEVTLSVKADFPTPSISDFEIPTSNIRRIICSTSGGFPEPHLSWLENGEELNAINTTVSQDPETELYAVSSKLDFNMTTNHSFMCLIKYGHLRVNQTFNWNTTKQEHFPDNLLPSWAITLISVNGIFVICCLTYCFAPRCRERRRNERLRRESVRPV
B2: T13R/Q33L/E35D/M47L/V68M/L85M (protein, UniProt P33681 35-288, looked up, variant T13R Q33L E35D M47L V68M L85M)
T-lymphocyte activation …: B1 T-lymphocyte activation … with T13R, Y18H, Q33L, I38M
B3: H18Y/E35D/M47L/Y53F/V68M/A71G (protein, UniProt P33681 35-288, looked up, variant H18Y E35D M47L Y53F V68M A71G)
T-lymphocyte activation …: B1 T-lymphocyte activation … with I38M, Y53F, A71G, M85L
B4: H18Y/E35D/V68M/T79M/L85M (protein, UniProt P33681 35-288, looked up, variant H18Y E35D V68M T79M L85M)
T-lymphocyte activation …: B1 T-lymphocyte activation … with I38M, L47M, T79M
B5: Q33R/E35D/M38I/M47L/V68M (protein, UniProt P33681 35-288, looked up, variant Q33R E35D M38I M47L V68M)
T-lymphocyte activation …: B1 T-lymphocyte activation … with Y18H, Q33R, M85L
B6: H18Y/V22D/E35D/M47V/N48K/V68M (protein, UniProt P33681 35-288, looked up, variant H18Y V22D E35D M47V N48K V68M)
T-lymphocyte activation …: B1 T-lymphocyte activation … with V22D, I38M, L47V, N48K, M85L

Molecular target: T1, CD28 (Homo sapiens, UniProt P10747)
Experiment: Flow binding to Jurkat/IL2 reporter cells (CD28)
Parameters: host or cells: Jurkat cells expressing an IL-2-luciferase reporter
Settings: Table E11; 33.3 nM; listed as WT CD80 ECD-Fc = 1.0
In short: (§1)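 Binding EC50 and PE mean fluorescence intensity derived by flow cytometry using PE-labelled anti-human Fc secondary. Target cells were CTLA4- or PD-L1-transfected CHO lines and CD28-expressing Jurkat/IL2 reporter cells, stained with fusion proteins on ice for 45 min following BSA blocking.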

CD28 Fold change to WT CD80 | Molecule
0.5 | B1
0.5 | B2
0.5 | B3
33.2 | B4
0.5 | B5
8.2 | B6

Same assay, conditions: Table E11; Jurkats (CD28); 33.3 nM

CD28 MFI at 33.3 nM | Molecule
16.7 | B1
15.7 | B2
15.7 | B3
1041 | B4
15 | B5
257 | B6

Same assay, conditions: Table E16; 33.3 nM; listed as CD80 WT IgV-Fc = 1.0

CD28 Fold change to WT CD80 | Molecule
11.6 | B3

Same assay, conditions: Table E16; consensus variants; Jurkats (CD28); 33.3 nM

CD28 MFI at 33.3 nM | Molecule
478 | B3

Molecular target: huPD-L1 (Homo sapiens, UniProt Q9NZQ7)
Sequence (Q9NZQ7 19-290): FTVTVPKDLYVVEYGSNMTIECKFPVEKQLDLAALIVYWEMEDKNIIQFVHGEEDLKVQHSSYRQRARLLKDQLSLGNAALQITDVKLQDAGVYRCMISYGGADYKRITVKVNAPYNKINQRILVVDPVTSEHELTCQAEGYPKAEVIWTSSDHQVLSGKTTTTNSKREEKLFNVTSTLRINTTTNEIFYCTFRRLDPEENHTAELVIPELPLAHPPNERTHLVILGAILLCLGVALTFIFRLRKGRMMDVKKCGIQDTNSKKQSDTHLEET
Experiment: Flow binding to CHO cells stably expressing PD-L1
Parameters: huCTLA4 and huPD-L1, full-length mammalian surface expression constructs were generated; expressed in transfected cells; host or cells: CHO cells, lentiviral transduction, sorted to >98% purity
Settings: Table E11; 33.3 nM; listed as WT CD80 ECD-Fc = 1.0
In short: as §1

PD-L1 Fold change to WT CD80 | Molecule
69.7 | B1
62.7 | B2
99.1 | B3
289.5 | B4
320.4 | B5
249.8 | B6

Same assay, conditions: Table E11; CHO cells stably expressing PD-L1; 33.3 nM

PD-L1 MFI at 33.3 nM | Molecule
3589 | B1
3228 | B2
5105 | B3
14907 | B4
16502 | B5
12867 | B6

Same assay, conditions: Table E11; MFI at 33.3 nM

Ratio of PDL1:CD28 | Molecule
214.9 | B1
205.6 | B2
325.2 | B3
14.3 | B4
1107.5 | B5
50.1 | B6

Same assay, conditions: Table E16; 33.3 nM; listed as CD80 WT IgV-Fc = 1.0

PD-L1 Fold change to WT CD80 | Molecule
135.1 | B3

Same assay, conditions: Table E16; MFI at 33.3 nM

Ratio of PDL1:CD28 | Molecule
20.0 | B3

Same assay, conditions: Table E16; consensus variants; CHO cells stably expressing PD-L1; 33.3 nM

PD-L1 MFI at 33.3 nM | Molecule
9576 | B3

Molecular target: huCTLA4 (Homo sapiens, UniProt P16410)
Sequence (P16410 36-223): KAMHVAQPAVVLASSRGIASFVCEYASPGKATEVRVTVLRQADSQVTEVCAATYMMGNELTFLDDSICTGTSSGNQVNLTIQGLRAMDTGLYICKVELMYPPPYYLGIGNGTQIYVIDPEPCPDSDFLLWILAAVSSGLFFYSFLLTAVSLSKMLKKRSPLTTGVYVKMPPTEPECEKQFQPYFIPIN
Experiment: Flow binding to CHO cells stably expressing CTLA4
Parameters: huCTLA4 and huPD-L1, full-length mammalian surface expression constructs were generated; expressed in transfected cells; host or cells: CHO cells, lentiviral transduction, sorted to >98% purity
Settings: Table E11; 33.3 nM; listed as WT CD80 ECD-Fc = 1.0
In short: as §1

CTLA4 Fold change to WT CD80 | Molecule
0.1 | B1
0.1 | B2
0.1 | B3
9.3 | B4
0.1 | B5
9.0 | B6

Same assay, conditions: Table E11; CHO cells stably expressing CTLA4; 33.3 nM

CTLA4 MFI at 33.3 nM | Molecule
139 | B1
141 | B2
146 | B3
16287 | B4
107 | B5
15798 | B6

Same assay, conditions: Table E16; 33.3 nM; listed as CD80 WT IgV-Fc = 1.0

CTLA4 Fold change to WT CD80 | Molecule
18.7 | B3

Same assay, conditions: Table E16; consensus variants; CHO cells stably expressing CTLA4; 33.3 nM

CTLA4 MFI at 33.3 nM | Molecule
19528 | B3

Molecular target: T1, CD28
Experiment: Jurkat/IL2 + CHO/OKT3 +/- PD-L1 reporter assay: PD-L1-dependent CD28 costimulation
Assay type: cell-based
Parameters: host or cells: Jurkat cells expressing an IL-2-luciferase reporter
Settings: Table E13; Jurkat/IL2 + CHO/OKT3/PD-L1; 5.0 nM
In short: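 Readout is relative luminescence from lysed cocultures: test protein given 15 min at room temperature to Jurkat cells before adding CHO artificial APCs displaying OKT3 alone or OKT3 plus PD-L1, then 5 h at 37 °C, 5% CO2.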

Fold Increase over WT CD80-IgV-Fe | Relative Luciferase Units (RLU), CD80 Cone 5.0 nM | Molecule
0.5 | 198 RLU | B1
0.4 | 153 RLU | B2
0.3 | 120 RLU | B3
2.9 | 1161 RLU | B4
0.4 | 147 RLU | B5
2.7 | 1072 RLU | B6

Same assay, conditions: Table E17; Jurkat/IL2 + CHO/OKT3/PD-L1; 5.0 nM

Fold Increase over WT CD80-IgV-Fe | Molecule
5.7 | B3

Same assay, conditions: Table E17; consensus variants; Jurkat/IL2 + CHO/OKT3/PD-L1; 5.0 nM

Relative Luciferase Units (RLU), CD80 Cone 5.0 nM | Molecule
2277 RLU | B3
